Experimental data: patent US20220356265A1 (KEIO UNIVERSITY, published 2022)

Experiments:
mouse GPC-1 = molecular target: T1, mouse GPC-1 (mouse, UniProt Q9QZF2 24-529); assay: statement opening Example 7; no assay named
T1 construct: whole, on cells; also called mouse glypican-1
T1 sequence (looked up): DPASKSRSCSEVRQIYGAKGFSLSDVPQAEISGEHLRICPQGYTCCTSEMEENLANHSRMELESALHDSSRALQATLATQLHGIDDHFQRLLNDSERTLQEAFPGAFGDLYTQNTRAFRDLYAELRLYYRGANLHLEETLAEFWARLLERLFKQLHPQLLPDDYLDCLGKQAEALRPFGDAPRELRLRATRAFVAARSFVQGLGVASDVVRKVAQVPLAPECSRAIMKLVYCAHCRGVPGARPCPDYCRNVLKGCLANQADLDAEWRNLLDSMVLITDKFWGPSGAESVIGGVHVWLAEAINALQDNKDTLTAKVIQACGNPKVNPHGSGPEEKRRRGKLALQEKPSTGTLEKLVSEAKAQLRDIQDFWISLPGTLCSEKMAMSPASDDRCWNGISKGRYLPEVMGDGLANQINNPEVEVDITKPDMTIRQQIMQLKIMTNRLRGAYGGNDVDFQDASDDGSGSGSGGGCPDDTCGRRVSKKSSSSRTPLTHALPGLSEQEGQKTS

human glypican-1 (GPC-1) = molecular target: T2, human glypican-1 (GPC-1) (human, UniProt P35052 24-530); assay: statement opening Example 7; no assay named
T2 construct: whole, on cells; also called GPC-1 antigen
T2 sequence (looked up): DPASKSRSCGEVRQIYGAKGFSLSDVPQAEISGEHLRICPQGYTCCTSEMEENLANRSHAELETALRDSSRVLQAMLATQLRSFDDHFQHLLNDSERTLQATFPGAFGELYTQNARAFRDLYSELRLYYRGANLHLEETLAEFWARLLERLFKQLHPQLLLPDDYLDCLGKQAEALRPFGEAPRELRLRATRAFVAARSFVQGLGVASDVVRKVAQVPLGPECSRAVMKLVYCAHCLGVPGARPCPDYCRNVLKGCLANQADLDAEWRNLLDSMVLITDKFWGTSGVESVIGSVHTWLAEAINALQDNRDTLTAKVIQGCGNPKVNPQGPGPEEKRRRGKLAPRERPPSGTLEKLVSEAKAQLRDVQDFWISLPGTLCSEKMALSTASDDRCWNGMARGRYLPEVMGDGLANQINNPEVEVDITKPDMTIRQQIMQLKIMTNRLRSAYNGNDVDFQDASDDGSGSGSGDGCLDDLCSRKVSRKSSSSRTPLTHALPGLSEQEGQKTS

B1: anti-GPC-1-CAR (Type A or Type B not stated) (other)
VH: AVTLDESGGGLQTPGRALSLVCKASGFTFSRYAMYWVRQAPGKGLEFVAGIGNTGRYTGYGSAVKGRATISRDSGQSTVRLQLNNLRAEDTGNYYCAKSVSPYCCDAADIDAWGHGTEVIVSS
VL: ASTQPSSVSANPGETVKITCSGGSSGYAYGWYQQKSPGSAPVTLLYSNNNRPSDIPSRFSGSKSGSTATLTITGVQAEDEAVYFCGSVDSSSYAGIFGAGTTLTVL
notes: VH and VL in truth stand in one CAR chain with a (Gly4Ser)3 linker, a human CD28-derived part and the human CD3zeta intracellular domain; also called GPC-1 CAR gene of the invention; CAR of the anti-GPC-1-CAR-T cells
Does B1 bind (mouse GPC-1)?
Result: binds

Does B1 bind (human glypican-1 (GPC-1))?
Result: binds
